Source: US20130122577, “KIT INCLUDING SEQUENCE SPECIFIC BINDING PROTEIN AND METHOD AND DEVICE FOR DETERMINING NUCLEOTIDE SEQUENCE OF TARGET NUCLEIC ACID” (Samsung Electronics Co., Ltd., published 2013)

Legend:
[1] = molecular target: ZF02 (two-finger zinc finger protein targeting AACTGA, YFP fusion) (Artificial Sequence); assay: EMSA; 20 mM bis-Tris propane pH 7.0, 100 mM NaCl, 5 mM MgCl2, 20 mM ZnSO4 (so in the source), room temperature 1 h; complementary strand SEQ 16 appears printed 3'-5'; conditions: tags: YFP fused via (Gly2Ser)2 linker; Ni-NTA purified from E. coli BL21(DE3), pET21b-YFP-ZF (2)
Chain of ZF02 (two-finger zinc finger protein targeting AACTGA, YFP fusion) (Artificial Sequence) (chain, as listed by the source): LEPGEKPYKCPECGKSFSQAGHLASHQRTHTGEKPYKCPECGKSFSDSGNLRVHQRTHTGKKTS
Method: (§1) In order to identify whether the sequence specific binding protein prepared in Example 2 specifically binds to the target nucleic acid, a gel mobility shift assay was performed.
(§2) First, a 20-mer oligonucleotide including the nucleotide sequences AATTAG or AACTGA, which the sequence specific binding protein may specifically recognize, was synthesized (SEQ ID NO. 13 to SEQ ID NO. 16). Subsequently, each of the oligonucleotides of SEQ ID NOS. 13 and 14, SEQ ID NOS. 15 and 16 was annealed to prepare a target nucleic acid. The prepared target nucleic acid and the protein prepared in Example 2 was added to a buffer solution (including 10 ml of 20 mM bis-Tris propane (pH 7.0); 100 mM NaCl; 5 mM MgCl₂; 20 mM ZnSO₄; 10% glycerol; 0.1% Nonidet P-40; 5 mM DTT; and 0.10 mg/ml BSA), followed by reaction at room temperature for about 1 hour. The reactant was subjected to non-denaturing PAGE and as a result as shown in FIG. 6 and FIG. 7, it was identified that a combined product of a target nucleic acid 1 (a polynucleotide fragment including AATTAG) or 2 (a polynucleotide fragment including AACTGA) with ZF01 or ZF02 respectively recognizing the nucleic acid 1 or 2 was shorter in mobility distance on the gel than a negative control group (target nucleic acid).

[2] = molecular target: ZF01 (two-finger zinc finger protein targeting AATTAG, YFP fusion) (Artificial Sequence); assay: EMSA; 20 mM bis-Tris propane pH 7.0, 100 mM NaCl, 5 mM MgCl2, 20 mM ZnSO4 (so in the source), room temperature 1 h; complementary strand SEQ 14 appears printed 3'-5'; conditions: tags: YFP fused via (Gly2Ser)2 linker; Ni-NTA purified from E. coli BL21(DE3), pET21b-YFP-ZF (1)
Chain of ZF01 (two-finger zinc finger protein targeting AATTAG, YFP fusion) (Artificial Sequence) (chain, as listed by the source): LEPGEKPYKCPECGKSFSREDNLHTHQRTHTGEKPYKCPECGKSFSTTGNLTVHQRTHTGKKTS
Method: as §1, §2

B1: target nucleic acid 2 (AACTGA 20-mer duplex) (dsDNA)
DNA 1: TTTTTTTAACTGATTTTTTT
DNA 2: AAAAAAATCAGTTAAAAAAA
binding result [1]: binds

B2: target nucleic acid 1 (AATTAG 20-mer duplex) (dsDNA)
DNA 1: TTTTTTTAATTAGTTTTTTT
DNA 2: AAAAAAACTAATTAAAAAAA
binding result [2]: binds
